# Test results reported in patent publication US20250206836A1 (ONA THERAPEUTICS S L, published 2025).
# Residue numbers refer to the chain shown, from its start. In names and notes the source's numbering stands.
# B1: 27G04 (antibody, human IgG1, V domains shown)
# VH: EVQLQQSGAELLKPGASVKISCKTTGYTFSNYWIEWVKQRPGHGLEWIGEILPGSGSPKYNEKFKGKATLTADTSSNTAFMQLSSLTSEDSAVYYCAPFILENYFDYWGQGTTLTVSS
# VL: DIQMTQSHKFMSTSVGDRVSITCKASQDVSTAVAWYQQKPGQSPKLLIYSASYRYTGVPDRFTGSGSGTDFTFTISSVQAEDLAVYYCQQHYSTPRTFGGGTKLEIK
# notes: Chimeric: mouse variable regions on human IgG1 LALA (L234A/L235A)
# B2: 38G04 (antibody, human IgG1, V domains shown)
# VH: AVTLDESGGGLQTPGRALSLVCKASGFTFSSYNMFWVRQAPGKGLEWVAGIDDDGSFTLYGAAVKGRATISRDNGQSTVRLQLNNLRAEDTGTYYCARDSGAVSIDAWGHGTEVIVSS
# VL: ALTQPSSVSANPGETVKITCSGGDSDYGWYQQKSPGSAPVTVIYQNDKRPSDIPSRFSGSASGSTATFTITGVQAEDEAVYYCGGWDGSYDGAVFGAGTTLTVL
# notes: Chimeric: chicken variable regions on human IgG1 LALA (L234A/L235A); also called 038G04
# B3: 15G04 (antibody, human IgG1, V domains shown)
# VH: QVQLQQSGPELVKPGASVKISCKASGYTFSTSWMNWVKQRPGQGLEWIGRIYPGDGDTNYNGKFKGKATLTADTSSSTAYMQLSSLTSVDSAVYFCAREVYYGGYEDYGMDYWGQGTSVTVSS
# VL: DVVMTQTPLSLPVSLGDQASISCRSSQSLLHTNVNTYLHWYLQKPGQSPKLLIYKVSNRFSGVPDRFSGSGSGTDFTLKISRVEAEDLGVYFCSQSTHVPYTFGGGTKLEIK
# notes: Chimeric: mouse variable regions on human IgG1 LALA (L234A/L235A); also called 015G04
# B4: 13G04 (antibody, human IgG1, V domains shown)
# VH: QVQLQQSGAELVRPGASVKLSCKASGYTFTSYWMNWVKQRPGQGLEWIGMIDPSDNETHYNQMFKDKATLTVDKSSSTAYMQLSSLTSEDSAVYYCARSDYGNGYSFYLDVWGAGTTVTVSS
# VL: DIVLTQSPASLAVSLGQRATISCRASESVDSYGNSFMHWYQQKPGQPPKLLIYRASNLESGIPARFSGSGSRTDFTLTINPVEADDVATYYCQQSNEDPWTFGGGTKLEIK
# notes: Chimeric: mouse variable regions on human IgG1 LALA (L234A/L235A); also called 013G04
# B5: 4G04 (antibody, human IgG1, V domains shown)
# VH: QVQLQQPGSELRSPGSSVKLSCKDFDSEVFPIAYMTWVRQKPGHGFEWIGDILPSIGGTIYGEKFEDKATLDADTVSNTAYLELNSLTSEDSAIYYCARDYYGSSYGYFDVWGAGTAVTVSS
# VL: DIVLTQSQKFMSTSVGDRVSVTCKASQNVGTNVAWYQQKPGQSPKALIYSASYRYSGVPDRFTGSGSGTDFTLTISNVQSEDLAEYFCQQYNSYPYTFGGGTKLEIK
# notes: Chimeric: mouse variable regions on human IgG1 LALA (L234A/L235A); also called 04G04; 004G04
# B6: 29G04 (antibody, human IgG1, V domains shown)
# VH: QVQLQQSGTELVKPGASVKLSCKASGYTFTSYWMHWVKQRPGQGLEWIGEIDPSDSHTNYNQKFKGKATLTVDKSSSTAYMQLSSLTSEDSAVYYCAPIYYGLDNWGQGTTLTVSS
# VL: B5 VL with Y96L, G100A, I106L
# notes: Chimeric: mouse variable regions on human IgG1 LALA (L234A/L235A); also called 029G04
# B7: 6G04 (antibody, human IgG1, V domains shown)
# VH: QVQLQQSGAELVMPGASVKMSCKASGYTFTDYWMHWVKQRPGQGLEWIGSIDTSDSYTTYSQKFKGKATLTVDESSSTAYMELARLTSEDSAIYYCVRGEDYEGTWFAYWGQGTLVTVSA
# VL: ETTVTQSPASLSVATGEKVTIRCITSTDIDDDMNWYQQKPGEPPKLLISEGNTLRPGVPSRFSSSGYGTDFVFTIENTLSEDVADYYCLQSDNMPLTFGAGTKLELK
# notes: Chimeric: mouse variable regions on human IgG1 LALA (L234A/L235A); also called 06G04; 006G04
# B8: 16G04 (antibody, human IgG1, V domains shown)
# VH: EVQLQQSGPELVKPGASVKISCKTSGYTFTEYTMHWVKQSHGKSLEWIGGINPYNGGTAYNQKFKNKATLTVDISSNTAFMEFRSLTSEDSAVYYCASDYFYGDANPWFAYWGQGTLVTVSA
# VL: B7 VL with V13M, T15I, T78M, M94L
# notes: Chimeric: mouse variable regions on human IgG1 LALA (L234A/L235A); also called 016G04
# B9: 19G04 (antibody, human IgG1, V domains shown)
# VH: EVQLQQSGPELVKPGASVKISCETSGHTFTEYTMHWVKQSHGKSLEWIGGIYPNNGATKYNQKFKGKATLTVDKSSSTAYMELRSLTSEDSAVYYCARDRYDVWFAYWGQGTLVTVSA
# VL: B7 VL with V13M, T15I, V72I, T78M, M94L
# notes: Chimeric: mouse variable regions on human IgG1 LALA (L234A/L235A); also called 019G04
# B10: 30G04 (antibody, human IgG1, V domains shown)
# VH: EVQLVESGGGVVQPGESLKLSCESNEYEFPSHDMSWVRKTPERRLELVAAINSDGAITYYPDTMERRFIISRDNTKKTLYLQMSSLKSEDTAMYYCARHGQTGTWFAYWGQGTLVTVSA
# VL: B7 VL with V13M, T15I, T78M, M94L
# notes: Chimeric: mouse variable regions on human IgG1 LALA (L234A/L235A); also called 030G04
# B11: 1G05 (antibody, V domains shown)
# VH: QVQLKQSGADLVRPGASVKLSCKASGYTFTDYYINWVKQRPGQGLEWIARIYPGSGNTYYNEKFKGKATLTAEKSSSTAYMQLSSLTSEDSAVYFCARGIGGGFGMDYWGQGTSVTVSS
# VL: SIVMTQTPKFLLVSAGDRITITCKASQSVSDDVAWYQQKPGQSPKLLIYYASNRYTGVPDRFTGSGYGTDFTFTISTVQAEDLAVYFCQQDYSSPLTFGAGTKLEIK
# notes: also called LALAPG
# B12: 1G07 (antibody, V domains shown)
# VH: B11 VH
# VL: B11 VL
# notes: also called SPLE
# B13: 1G03 (antibody, V domains shown)
# VH: B11 VH
# VL: B11 VL
# Target: T1, purified biotin-tagged human CD36 (human, UniProt P16671 30-439, limits assumed, biotin tag, site not stated)
# T1 sequence (P16671 30-439 limits assumed): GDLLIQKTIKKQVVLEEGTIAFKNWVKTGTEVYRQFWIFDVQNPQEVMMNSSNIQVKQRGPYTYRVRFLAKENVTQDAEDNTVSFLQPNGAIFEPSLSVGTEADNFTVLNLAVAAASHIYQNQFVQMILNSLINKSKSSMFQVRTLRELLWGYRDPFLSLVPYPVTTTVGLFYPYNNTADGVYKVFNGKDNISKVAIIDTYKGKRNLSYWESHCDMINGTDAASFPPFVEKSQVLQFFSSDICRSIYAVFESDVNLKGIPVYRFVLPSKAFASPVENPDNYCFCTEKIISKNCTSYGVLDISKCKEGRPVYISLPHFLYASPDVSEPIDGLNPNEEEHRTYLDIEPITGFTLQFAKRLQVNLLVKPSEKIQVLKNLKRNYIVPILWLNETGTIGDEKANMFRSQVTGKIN
# Experiment: AlphaScreen competition; competitor 1G04 on acceptor beads;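 also: streptavidin donor beads excited at 680 nm release singlet oxygen, and the light signal needs a nearby acceptor bead, with 30 min donor-bead incubation at 25 °C in the dark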
# Description: (§1) This was done using the AlphaScreen® bead-based microplate assay. […] AlphaLISA® Streptavidin Donor Beads were then added and the mix incubated for 30 min at 25° C. in the dark. The donor bead contains a photosensitizer, which upon excitation by light at 680 nm, converts oxygen (O₂) into an excited form, singlet oxygen. Singlet oxygen molecules have a reduced lifetime (4 microseconds half-life) and can diffuse approximately 200 nm in solution before falling back to ground state. In the absence of acceptor beads, the singlet oxygen molecules fall back to ground state without producing any light signal.
# For Percent Fatty Acid Uptake Inhibition in this document: test concentration or dose not given here.
row,Binder,EC50 [nM]
1,B1,0.15
2,B2,1.45
3,B3,0.41
4,B4,0.17
5,B5,0.11
6,B6,0.37
7,B7,1.15
8,B8,9.19

# Target: T2, human CD36 (on HEK 293 or SCC25 cells) (human, UniProt P16671 2-472)
# T2 construct: Overexpressed transiently or stably on HEK 293 cells, or stably on SCC25 cells; also called huCD36
# T2 sequence (P16671 2-472 limits assumed): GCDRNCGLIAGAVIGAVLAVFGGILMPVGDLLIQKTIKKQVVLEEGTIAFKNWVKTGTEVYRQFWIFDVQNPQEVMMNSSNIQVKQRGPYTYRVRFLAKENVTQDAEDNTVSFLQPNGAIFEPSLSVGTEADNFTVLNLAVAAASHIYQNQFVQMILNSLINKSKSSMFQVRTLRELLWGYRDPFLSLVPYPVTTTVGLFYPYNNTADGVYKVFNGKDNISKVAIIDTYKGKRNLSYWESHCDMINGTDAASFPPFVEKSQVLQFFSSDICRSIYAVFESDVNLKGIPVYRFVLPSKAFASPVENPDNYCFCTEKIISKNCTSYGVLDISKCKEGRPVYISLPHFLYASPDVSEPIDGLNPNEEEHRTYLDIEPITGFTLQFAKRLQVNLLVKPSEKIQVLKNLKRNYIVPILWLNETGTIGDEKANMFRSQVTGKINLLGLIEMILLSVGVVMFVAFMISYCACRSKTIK
# Experiment: FACS, SCC25 cells stably overexpressing human CD36
# Description: After transiently transfecting the HEK 293 cells with a CD36 expression construct, cells were treated with three-fold serial dilution of each candidate antibody (10 dilutions starting at 500 nM). […] After incubation with the cells, an anti-human fluorescently labelled antibody was added to the cell media, allowed to incubate further, and the unbound antibody was washed off of the cells. Subsequently, the cells were subjected to FACS analysis to determine antibody binding to the cells. The results were fitted to a sigmoidal titration curve. Using a nonlinear regression model, the EC₅₀ values for each antibody were calculated from the GeoMFI and MFI values using the log(agonist) versus response (four parameters) fitting on the data transformed according to X=Log[X] in GraphPad PRISM.
row,Binder,EC50 [nM]
1,B4,0.26
2,B9,0.75
3,B7,0.56
4,B10,0.22
5,B8,0.57

# Target: T2, human CD36 (on HEK 293 or SCC25 cells)
# Experiment: cell-based or functional assay
row,Binder,"IC50 of oxLDL uptake inhibition (DiI-oxLDL, SCC25 cells) [nM]"
1,B2,0.35
2,B4,0.26
3,B7,0.27

# Target: T3, human CD36 (His-tagged) (human, UniProt P16671 30-439)
# T3 construct: not shown: His tag
# T3 sequence (P16671 30-439 limits assumed): as the sequence (P16671 30-439 limits assumed) above
# Experiment: SPR (Biacore T200), His-captured CD36, bivalent analyte model
Binder,Kd [nM],koff [s⁻¹],kon [M⁻¹ s⁻¹]
B4,1.5,0.0037,2.4e+06
B7,0.51,0.0002,390000

# Target: T2, human CD36 (on HEK 293 or SCC25 cells)
# Experiment: cell-based or functional assay
# Remark: another data set of the same source
row,Binder,"IC50 of fatty acid uptake inhibition (BODIPY FL C16, HEK hCD36 cells) [nM]"
1,B2,0.18
2,B3,> 1000
3,B4,0.2
4,B5,483
5,B6,0.08
6,B9,0.05
7,B7,0.1
8,B10,0.8
9,B8,0.15

# Target: T1, purified biotin-tagged human CD36
# Experiment: AlphaScreen competition; competitor 11G04 on acceptor beads
# Description: as §1
row,Binder,EC50 [nM]
1,B2,1.05
2,B9,5.23
3,B10,0.65
4,B8,3.73

# Target: T2, human CD36 (on HEK 293 or SCC25 cells)
# Experiment: FACS, SCC25 cells stably expressing human CD36
# Description: SCC25 cells were treated with 10-fold serial dilution of each antibody (5 dilutions starting at 100 nM). After incubation with the cells, an anti-human fluorescently labelled antibody was added to the cell media, allowed to incubate further, and the unbound antibody was washed off of the cells. Subsequently, the cells were subjected to FACS analysis to determine antibody binding to the cells. The results were fitted to a sigmoidal titration curve. Using a nonlinear regression model, the EC₅₀ values for each antibody were calculated from the GeoMFI and MFI values using the log(agonist) versus response (four parameters) fitting on the data transformed according to X=Log[X] in GraphPad PRISM.
row,Binder,EC50 [nM]
1,B11,0.38
2,B12,0.47
3,B13,0.38

# Target: T1, purified biotin-tagged human CD36
# Experiment: AlphaScreen competition; competitor FA6-152 on acceptor beads
# Description: as §1
row,Binder,EC50 [nM]
1,B1,1.8
2,B3,5.65
3,B4,46.8
4,B5,9.89
5,B6,33.8
6,B7,1040

# Target: T4, mouse CD36 (on HEK 293 cells) (mouse, UniProt Q08857 1-472)
# T4 construct: also called Murine CD36
# T4 sequence (Q08857 whole entry): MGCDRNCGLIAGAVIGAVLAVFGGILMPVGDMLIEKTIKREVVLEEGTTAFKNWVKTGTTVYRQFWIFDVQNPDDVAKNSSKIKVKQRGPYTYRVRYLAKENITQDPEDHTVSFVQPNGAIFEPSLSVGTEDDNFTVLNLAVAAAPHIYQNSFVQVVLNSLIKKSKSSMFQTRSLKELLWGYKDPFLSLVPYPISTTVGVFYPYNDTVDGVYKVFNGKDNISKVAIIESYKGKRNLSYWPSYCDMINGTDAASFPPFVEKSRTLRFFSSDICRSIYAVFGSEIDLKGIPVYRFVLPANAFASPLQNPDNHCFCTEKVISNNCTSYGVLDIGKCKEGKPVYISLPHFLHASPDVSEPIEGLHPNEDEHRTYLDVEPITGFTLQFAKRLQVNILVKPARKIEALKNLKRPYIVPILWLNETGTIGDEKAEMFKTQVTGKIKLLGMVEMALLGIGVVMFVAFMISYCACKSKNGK
# Experiment: FACS, HEK 293 cells transiently overexpressing CD36;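 also: antibody binding to transfected cells detected by flow cytometry with a fluorescent anti-human secondary antibody, EC50 from a four-parameter sigmoidal fit of mean fluorescence intensity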
row,Binder,EC50 [nM]
1,B2,0.69
2,B4,5.93
3,B9,22.5
4,B7,1.51
5,B10,0.96
6,B8,18.2

# Target: T2, human CD36 (on HEK 293 or SCC25 cells)
# Experiment: as above
row,Binder,EC50 [nM]
1,B1,0.91
2,B2,0.35
3,B4,0.31
4,B6,0.36
5,B9,1.92
6,B7,0.53
7,B10,0.32
8,B8,1.36

# Target: T5, nonhuman primate CD36 (on HEK 293 cells) (cynomolgus monkey / rhesus macaque, UniProt P16671 2-472 (human entry))
# T5 construct: also called non-human primate CD36 (cynomolgus)
# T5 sequence (P16671 other isoform, or with tags, fused parts or gaps limits assumed): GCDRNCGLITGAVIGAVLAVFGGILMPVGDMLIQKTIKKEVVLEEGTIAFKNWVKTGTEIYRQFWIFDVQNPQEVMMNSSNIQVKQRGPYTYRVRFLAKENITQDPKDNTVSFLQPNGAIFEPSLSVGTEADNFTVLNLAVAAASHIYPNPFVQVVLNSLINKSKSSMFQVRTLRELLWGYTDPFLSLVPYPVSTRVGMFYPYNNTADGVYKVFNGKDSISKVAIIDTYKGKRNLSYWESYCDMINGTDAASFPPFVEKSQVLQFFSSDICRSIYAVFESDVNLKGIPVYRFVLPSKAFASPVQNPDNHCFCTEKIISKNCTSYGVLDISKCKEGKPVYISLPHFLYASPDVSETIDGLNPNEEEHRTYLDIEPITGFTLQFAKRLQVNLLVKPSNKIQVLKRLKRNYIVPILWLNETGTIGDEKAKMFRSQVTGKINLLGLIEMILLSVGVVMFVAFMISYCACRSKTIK
# Experiment: as above
row,Binder,EC50 [nM]
1,B1,0.63
2,B2,0.33
3,B3,2.2
4,B4,1.06
5,B5,27.7
6,B6,0.32
7,B9,5.45
8,B7,4.85
9,B10,1.63
10,B8,5.4

# Target: T2, human CD36 (on HEK 293 or SCC25 cells)
# Experiment: cell-based or functional assay
# Remark: another data set of the same source
row,Binder,Percent Fatty Acid Uptake Inhibition [%]
1,B4,52.8
2,B9,53.3
3,B7,35.1
4,B10,43.5
5,B8,45.2

# Target: T6, human CD36 (Sino Biological) (human, UniProt P16671 30-439)
# T6 construct: Bought protein coated on ELISA plates
# T6 sequence (P16671 30-439 limits assumed): as the sequence (P16671 30-439 limits assumed) above
# Experiment: ELISA, plates coated with human CD36 (Sino Biological), antibody titrated, OD630nm
# Excerpt: Binding was first tested using an ELISA assay in which 96-well ELISA plates were coated with human CD36 (Sino Biological) or mouse CD36 protein.
row,Binder,EC50 (read off the curve) [nM]
1,B11,~0.1
2,B13,~0.1
